Laboratory results reported in doi:10.1101/2022.08.30.505785 (bioRxiv, 2022).

Molecular target: the molecule itself
Assay: SAXS

B1: Oxalyl-CoA synthetase from Saccharomyces cerevisiae, K352D variant (enzyme, S. cerevisiae, UniProt P38137 1-543, looked up)
chain: MTSAATVTASFNDTFSVSDNVAVIVPETDTQVTYRDLSHMVGHFQTMFTNPNSPLYGAVFRQDTVAISMRNGLEFIVAFLGATMDAKIGAPLNPNYKEKEFNFYLNDLKSKAICVPKGTTKLQSSEILKSASTFGCFIVELAFDATRFRVEYDIYSPEDNYKRVIYRSLNNAKFVNTNPVKFPGFARSSDVALILHTSGTTSTPKTVPLLHLNIVRSTLNIANTYKLTPLDRSYVVMPLFHVHGLIGVLLSTFRTQGSVVVPDGFHPKLFWDQFVKYNCNWFSCVPTISMIMLNMPKPNPFPHIRFIRSCSSALAPATFHKLEKEFNAPVLEAYAMTEASHQMTSNNLPPGDRKPGTVGQPQGVTVVILDDNDNVLPPGKVGEVSIRGENVTLGYANNPKANKENFTKRENYFRTGDQGYFDPEGFLVLTGRIKELINRGGEKISPIELDGIMLSHPKIDEAVAFGVPDDMYGQVVQAAIVLKKGEKMTYEELVNFLKKHLASFKIPTKVYFVDKLPKTATGKIQRRVIAETFAKSSRNKSKL
- stoichiometry N: 2
